Results: patent publication US20090263836A1

Target: iBoNT/A (protease inactive version of BoNT/A) (Clostridium botulinum)
Assay: SPR (BIAcore), […] ([…] to […])

Substance	Kd
SV2C529-566 (luminal part of SV2C) (peptide)	5000 nM
sFGFR3 (loop 2 and 3 of the extra cellular domain of FGFR3) (receptor)	10 nM
